Data on 1 substance can be found in patent US5780265.

The target in assay [1] is Human Factor XIa (human) (UniProt P03951).
The target is the same in assay [2]. Put plainly: enzyme inhibition of FXIa, chromogenic substrate, fit to the tight-binding equation (apparent Ki*).
Assay [3] shares this target. The source holds these as a separate data set.
For assay [4], the target named is Human plasma kallikrein (human) (UniProt P03952).
In assay [5] the target is tissue factor-Factor VIIa (human) (UniProt P13726).

Take “APPI, Kunitz protease inhibitor domain of the Alzheimer's amyloid β-protein precursor”: the fold prolongation of the clotting time of normal human plasma, APTT assay in the assay with Human Factor XIa (human) [1] was found to be 2.8 fold. The Ki with Human Factor XIa (human) [2] worked out at 2.7 nM. The fraction of remaining proteolytic activity at 100 nM inhibitor (fraction of uninhibited rate) with Human Factor XIa (human) [3] worked out at 0.03; in assay [4], 0.81; in assay [5], 0.6.
